test: soluble on expression in E. coli; label from the status in PepcDB or PDB records

Soluble on expression in E. coli, not soluble:
MGSDKIHHHHHHMTQAITMPDNPGADCIIEAGIVLTGLDAGSGLTGLGADGKMTMRHDVGIRVEKGMIAQIGPMEAVGYGNDHLPRFGSRRMIAMPGLVNAHHHFGVTPLMQGVPFAPLELWLPQFRAMRRIDQRLDTLYSAIEMLESGTTTVQHIHSGFSGTPDSWMQTAEATISAYGEIGMRLGYCFMIRDRNILSYEPDADILSRLPAKLRDWIAPQLAAADIPVPRLMEFYTDLRARFMKGSPQHIRMNLAPANLHWCSDNALQTIFETAKAAGGNVHMHLLETERQAEFARRTYGRSAVQHLQKLQCLDANVTLGHGNWMSGEDLDIIASCGCTICHNASSGLRLGSGIAPVNEMRRRGIPVALGIDQSNIADDRDMTLEMKLVWALHRETGLWNDRPDAGAVLQMASEHGAASAGFGGFTGRLEPGWQADIVLMDKDRIARPAINSRTPPVEALLHRGGRHAIEQVFVGGRLVVDGGRVTTVDRDAVMAEIEAILSRPETDAERYAWQAVETLLPHLESSLQQLGLGAGYRRYRYNSMSDQ
MGSDKIHHHHHHMTRAELYAVLDRFLAALDARDPTALDWAPGAHHSENNVMLEIGDGVWGTIDRLGDYRLRFADTRTRQVGYFGTVIEPIEESAFTLRLALDEAGRIAECEMLIVRQSDSGIKFENCRYWDKPILHREPEAPVSRQEMVRLSNGYFDTLQRNDGTIHTRFHPDCNRVENGVQTTRNPDFAKIVPVSALGCEEQFRMGNYRYDDDLRARRFPLVDEERGLVLAFGFIDHSGRLREFQLTDGRTVKSPVLRPHSFYISELFKIDHGMIEQIEANFITVPYRMPSPWDLL
MGSDKIHHHHHHMTSAYCTVLSKGRLYQAVALFKSLEQVDQDSPIFILCMDEDTHRVLQKLKMKQLNLVPVAALENELLLKLKETRDQSEYCWTMKPIFLQAVLNSNPELERVTYIDGDLFFYADPSPIFENQPDCSVLLSRGDIVIPSFEKEQIDMLQRLLGRYNSGFISFKHDDAGTDCLEWWKERCLEECKNAPGEGKFGDQGYLDYMSELFPNVCDITTPGVNIGHWNYGQHTFSWKDGRIVLEDGSPLIFYHFSGYRIVSINEIKQIHETTRTDLPFVHELYQETLPHIIQHMQTLDPEFNGFASKDDNK
MGSDKIHHHHHHMTSEKGIIFNIQHFSIHDGPGIRTTVFLKGCPLRCPWCSNPESQKYKPEQMLDAETKLPMIIGEEKTVEDIISEVKKDIDFYEESGGGLTLSGGEIFAQFEFAKAILKCAKEEGLHTAIETTAFAEHEKFTDLIQYVDFIYTDLKHYNTIRHRKVTGVNNNFIIQNIHYAFTHKKTIVLRIPVIPDFNNSLDDAEHFAKLFNDIQVDKVQLLPFHQFGENKYKFLNRKYEMSGYTALHPEDLYDYQSVFLEHGIDCYF
MGSDKIHHHHHHMTSRSPFESFVWQSEIFNCQSNDIDAFYAQLAEEVNRLGLKKNTLGSVDSFAINLYQSASQRSDLPSLLISSGFHGEEAAGPWGMLHFLRGLQPALFERVNLSLLPLVNPTGFKAGHRFNRFGENPNRGFTLENGKPTPNEHTSLEGKLLLEHAQLLCAASRDGILTCHEDVLMNETYVYSFEPTQTPGRFSLGLRDALGQYFKLAKDGFIDECPVTDGVIFNHFDTSFEAFLVRSGAKLAACSETPGQEDFDRRVQANSAAMGQFIAHCAPIL
MGSDKIHHHHHHMTTINAANAGTYAFDDQFKVNRMGYGVMQLTGPGTWGPYADPENGVKVVKKALEYGVNFFDTADSYGPWFADRYLAAGLKDAANRDQIFISDKVGQTRQGPNVWTPLGEPRYLRQQVEVSMMTLGIDHEDLVFLHRIDPHYSIADQVGELKKLQDEGKIKHIGLSQVTVDQIKEAQQVAKIDAIENLYNVANHGDDDVVDYAASQKMAFLPWFPLATGELAQAGSVLSTMAQKYQVSPAQIALAWLLKRSDNIIPIPGTSSIEHLRDNVAAANVDLTTADFNGLSQLSVK
MGSDKIHHHHHHMTTPRRALIVIDVQNEYVTGDLPIEYPDVQSSLANIARAMDAARAAGVPVVIVQNFAPAGSPLFARGSNGAELHPVVSERARDHYVEKSLPSAFTGTDLAGWLAARQIDTLTVTGYMTHNCDASTINHAVHSGLAVEFLHDATGSVPYENSAGFASAEEIHRVFSVVLQSRFAAVASTDEWIAAVQGGTPLARGNIYASNQKARARRATA
MGSDKIHHHHHHMTTSIDTLSAFVYAADLGSFSAAARRLGKSQSTISEAIANLEIDLGSSLFDRGTRAPTLTPAGRLLLPQARQIMAASQDLRRQAAQLNAGVETRLTIVLSDTFQSRTLESVACRLEERYPLLELECLVGEQEDVLDLILSGRAQLGLVGAMDSYPPDVRHQRQREASELALYAAHRHPLAGMDRIDEQQLDQHRQLRLNTYSDKTPADSGQRQWYAPSYLMLLDMARLGVGWAELPCWLVHSFGGGELKQLDVAGWPKRMPVDLVWAANKPLGAAAGWLLQQLTDGAEQR
MGSDKIHHHHHHMTTTNGIDGSYYYENRPKEQSNSGILGKDDFLRILIAQLQYQDPLNPMDDREFIAQMAQFSSLEQMTNMNSAIQQFVKQQTSQTLVQHSELIGKRVTWKRIIDIDEYRQKEELVENTVTSVRLETNGNVSIQLDSGRWISADQLVQVSGKTNHQEEAEGDVGDNAPDEQEG
MGSDKIHHHHHHMTTWVLLRGLMRDQRHWNGFDQRLRQKGLRVLTPDLPGNGTLSTEASPLKIADYAHAVWLQLDEQVQEGETIYLLGLSMGGMLALEMARQRPWLIRHVFVLNSSAANLSAWYQRFNPLNALKAFFLRARGKALHPIESTIVRLTSFRHRLDCGLIAEWSEFRRQSSPTIRNAWRQLWAAFQYQCPLTVEVPISVLCGDRDALVSMASSKALALHFHTDLIVLAYCGHDAAIDAPAKLAHYLLAIVAPTKLQAEVQEDDEPAHAQYAHTQYSCNDLLEEEMAFNEAIFSVWDEKALSTLHSKSSAMNSAKTVNS
MGSDKIHHHHHHMTVEYTASDLATYQNEVNEQIAKNKAHLESLTHPGSKVTFPIDQDISATPQNPNLKVFFFDIDNCLYKSSTRIHDLMQQSILRFFQTHLKLSPEDAHVLNNSYYKEYGLAIRGLVMFHKVNALEYNRLVDDSLPLQDILKPDIPLRNMLLRLRQSGKIDKLWLFTNAYKNHAIRCLRLLGIADLFDGLTYCDYSRTDTLVCKPHVKAFEKAMKESGLARYENAYFIDDSGKNIETGIKLGMKTCIHLVENEVNEILGQTPEGAIVISDILELPHVVSDLF
MGSDKIHHHHHHMTVFILNGEEPNQEGVRYVAKLLKREKLVEDIHFSTIDEIPLDNSYVLGDHSGTYFILKKIKPNALISLDAHTDLMQDYFDHASWLAYALKDNIIKRASVIGAVLMIPTTSGTKLWKRGVKVFPALPRTKKIRGKWKAYTNLEQHGVERVLKETREFLGKEIYLSIDLDVLSPEYRIARFQHGELTLRELLDIIEAIKKNFKIIAFDVAEISFRVAKSKYGRRAIIEVFSSLKEVFE
MGSDKIHHHHHHMVAMQSYPYVITVSSEKGGVGKTTLATNLAIYLKALDENLPVSIFSFDNHFTVDRMFEIRGQRTTGTVADLLLETPGRDLIHTGQYGVGYIPSSPNLSDLKGTVKTPMMLARLLALSRIPGVVVIDTRPDLDILTQNALFAADRAIIPVKDMPSLENCRNIFALFEQRGLDRKSLSLIPCLVDERIKFDGPFSDQKTLLKAYAINRGYRCFETYISKSPKVESLNTNPDGKIYPILTHAKWTEVHGQFAQLAQTIITEFRATAEPRAFLFHQWLQSEEVRKKEAFFARLSGIKSECLLCGRPVSGKDSDRVSFYFEVSDGSAAGFFEEECFFRLLMTNVYNLDINLADDDPTLQIMRDAARESAFVFRPVTNGSGTTVDFHRFGLDGVHLLKKAYPLREFEGGMLTREKSRLFSLLSETFGNRLDASPDSFLLVHPVHQEKPEAILQEECYRGFARLRQRIAQQVLPPN
MGSDKIHHHHHHMVDEILKLKKEKGYIILAHNYQIPELQDIADFVGDSLQLARKAMELSEKKILFLGVDFMAELVKILNPDKKVIVPDRSATCPMANRLTPEIIREYREKFPDAPVVLYVNSTSECKTLADVICTSANAVEVVKKLDSSVVIFGPDRNLGEYVAEKTGKKVITIPENGHCPVHQFNAESIDAVRKKYPDAKVIVHPECPKPVRDKADYVGSTGQMEKIPEKDPSRIFVIGTEIGMIHKLKKKFPDREFVPLEMAVCVNMKKNTLENTLHALQTESFEVILPKEVIEKAKKPILRMFELMG
MGSDKIHHHHHHMVDNPGNLNSFRALALQVTCHAVNQASDRQEAGLMMHNTINRLAQQIAASIAFIGFDCRLIVLPEYFLTGFPMGEPLQVWADKACLEINGAEYEALGMIAQKQQIFLAGNAYELDPNFPGLYFQTCFVIDPSGSVVLRYRRLNSLFAPTPHDVWDKYLDCYGLEGVFPVAKTAIGNLAALASEEILYPEVARCLAMRGAEIFLHSTSEVYSKNLTPKDAAKITRAVENMAYVVSANSAGLANSAIPIGSVDGGSKIIDHRGIILAETGPGESMAAFAEIDLAALRRDRTRPGLNNLLSRQRFEMYAQSYSQAKFYPANTMLNKEIERKHFIQTQQETIERLTRLGII
MGSDKIHHHHHHMVEELLGKALARKRSLRKDETIDVFNRVTYFFPKDFVITNYPRNPVAVFNPGAVLVGKALHVFPRLIFDYYKYVSSIGHFIVNIDDLLNGEVKKPLEMEVVFWPRDIQEFLGCEDPRVFFRNSRFELLYTAKGYKDWSQEGKPHTDFLAYAVLDEDLNLIEKRYISIKSTLGEYVPVSMKDSSFVESKVILTRLTVGDAKVCWRGRLEGSYIDLYSLDPVFFPEEWETKVGWSTNTVEVKEGYLVGWHAVLKDLTYKNGLALVDGRGRLLGTTNYVLSPKGVIEEYGDRIRVIFGCGLVVYGGRVIWIGGVSDWAIGVFETSEREIMNLMKEAT
MGSDKIHHHHHHMVELKAPLTTLWRGKDAFEEVKTLQGEVFRELETRRTLRFELDGKSYFLKWHKGTSLKEIVKNLISLRMPVLGADREWHAIHRLHELGVDTMHGVGFGEKGVNPLTRTSFIITEDLTPTISLEDYCADWAVNPPDAQVKWMIIKRVATMVRKMHAGGINHRDCYICHFLLHLPFTGREEDLKISVIDLHRAQIRQHVPLRWRDKDLIGLYFSSMNIGLTQRDIFRFMREYFSLPLREILQKESGLIHQADVKAARIKERTIRKNL
MGSDKIHHHHHHMVELQRVTASSLQQSFAGDVYNTGVYLKRTFSDINTHLVTAIGQDSFSQAMLQRFEDEKINTDMVFQSTDKIAGLYAIQTDSKGERSFTYWRNDSAAKQIMQFIGDAAISKISQADMVFFSGISLAVINEEDRDAFWLLIKQCKQAGVSIVFDPNYRARMWHSPDQAKAQFDIAFSVADVVLPGVDDFNQLYGISSVEDIIAFCQPYDINELVIKNGENGINYVINGQQQHFSITPVTNVVDTTSAGDSFNGVYLGARLTGADISTAIKLASQAAGFVIQHKGAIAPKIEFHQFIERQKLIMQ
MGSDKIHHHHHHMVERALALSELNQSEPVELVSNSKPSYPDLGEAVSVEVLVGWGKEAIAIIRDNYPDVLCNSDWECDVETTRLVNTQGLDCYYSDTTLSCYMSAEWVRGDDFLSVSDGQTQRDYLDPEKLAYQILQRLVWAKENVPPPNGRVPVLFTSKAADMLWGTAQAALNGKRVLEAASPWAERVGKQVIAPSLTLYQDPQAGPYSCPFDDEGTPTKSLVFIEKGILQNYYCDRTTGRQLGNSTTGNGFRPGLGSYPTPGLFNFLIKPGSKSLKDLIQNMDDGLIVDQMLGGSGGISGDFSINIELGYRVQKGQVIGRVKDTMVAGNVYTALKQVELGSDADWNGSCYTPSLIVEGLSTTGRNN
